Test: patients with anti-drug antibodies; higher = more immunogenic

Protein | patients with anti-drug antibodies
unnamed (protein) chain 1: QVQLKESGPGLVAPSQSLSITCTVSGFSLTDYGVRWIRQPPGKGLEWLGVIWGGGSTYYNSALKSRLSISKDNSKSQVFLKMNSLQTDDTAMYYCAKEKRRGYYYAMDYWGQGTSVTVSS chain 2: ENVLTQSPAIMSASPGEKVTMTCRASSSVSSSYLHWYQQKSGASPKLWIYSTSNLASGVPARFSGSGSGTSYSLTISSVEAEDAATYYCQQYSGYPLTFGGGTKLEIK | 33.3%
unnamed (protein) chain 1: EVQLVESGGGLEQPGGSLRLSCAGSGFTFRDYAMTWVRQAPGKGLEWVSSISGSGGNTYYADSVKGRFTISRDNSKNTLYLQMNSLRAEDTAVYYCAKDRLSITIRPRYYGLDVWGQGTTVTVSS chain 2: DIVMTQSPLSLPVTPGEPASISCRSSQSLLYSIGYNYLDWYLQKSGQSPQLLIYLGSNRASGVPDRFSGSGSGTDFTLKISRVEAEDVGFYYCMQALQTPYTFGQGTKLEIK | 4%
unnamed (protein) chain 1: EVQLLESGGGLVQPGGSLRLSCAVSGFTFNSFAMSWVRQAPGKGLEWVSAISGSGGGTYYADSVKGRFTISRDNSKNTLYLQMNSLRAEDTAVYFCAKDKILWFGEPVFDYWGQGTLVTVSS chain 2: not shown | 0%
unnamed (protein) chain 1: QVQLQESGPGLVKPSQTLSLTCTVSGYSISSDFAWNWIRQPPGKGLEWMGYISYSGNTRYQPSLKSRITISRDTSKNQFFLKLNSVTAADTATYYCVTAGRGFPYWGQGTLVTVSS chain 2: DIQMTQSPSSMSVSVGDRVTITCHSSQDINSNIGWLQQKPGKSFKGLIYHGTNLDDGVPSRFSGSGSGTDYTLTISSLQPEDFATYYCVQYAQFPWTFGGGTKLEIK | 5%
unnamed (protein) chain 1: EVQLLQSGPELEKPGASVMISCKASGSSFTGYNMNWVRQNIGKSLEWIGAIDPYYGGTSYNQKFKGRATLTVDKSSSTAYMHLKSLTSEDSAVYYCVSGMEYWGQGTSVTVSS chain 2: EIVMTQSPATLSVSPGERATLSCRSSQSLVHRNGNTYLHWYLQKPGQSPKLLIHKVSNRFSGVPDRFSGSGSGTDFTLKISRVEAEDLGVYFCSQSTHVPPLTFGAGTKLELK | 17%
unnamed (protein) chain 1: EVQLLESGGGLVQPGGSLRLSCAASGFTFSSYAMSWVRQAPGKGLEWVSTISSGGSYTSYPDSVKGRFTISRDNSKNTLYLQMNSLRAEDTAVYYCAKQDYAMNYWGQGTLVTVSS chain 2: DIQMTQSPSSLSASVGDRVTITCKASQDVSTAVAWYQQKPGKAPKLLIYSASYRYTGVPSRFSGSGSGTDFTLTISSLQPEDFATYYCQQHYSTPWTFGGGTKVEIK | 9.4%
unnamed (protein) chain 1: EVQLVQSGAEVKKPGATVKISCKVSGYTFTDYYIHWVQQAPGKGLEWMGRVNPDHGDSYYNQKFKDKATITADKSTDTAYMELSSLRSEDTAVYFCARNYLFDHWGQGTLVTVSS chain 2: DIQMTQSPSSVSASVGDRVTITCKASQDVGTAVAWYQQKPGKAPKLLIYWASIRHTGVPSRFSGSGSGTDFTLTISSLQPEDFATYYCHQFATYTFGGGTKVEIK | 58.6%
unnamed (protein) chain 1: QVQLVESGGGVVQPGRSLRLSCAASGFSFSNYGMHWVRQAPGKGLEWVALIWYDGSNEDYTDSVKGRFTISRDNSKNTLYLQMNSLRAEDTAVYYCARWGMVRGVIDVFDIWGQGTVVTVSS chain 2: DIQMTQSPSSVSASVGDRVTITCRASQGISSWLAWYQHKPGKAPKLLIYAASSLQSGVPSRFSGSGSGTDFTLTISSLQPEDFATYYCQQANSFPWTFGQGTKVEIK | 0%
unnamed (protein) chain 1: EVQLLESGGGLVQPGGSLRLSCAASGFTFSSYAMSWVRQAPGKGLEWVSGITGSGGSTYYADSVKGRFTISRDNSKNTLYLQMNSLRAEDTAVYYCAKDPGTTVIMSWFDPWGQGTLVTVSS chain 2: EIVLTQSPGTLSLSPGERATLSCRASQSVRGRYLAWYQQKPGQAPRLLIYGASSRATGIPDRFSGSGSGTDFTLTISRLEPEDFAVFYCQQYGSSPRTFGQGTKVEIK | 1%
unnamed (protein) chain 1: EVQLVESGGGLVQPGGSLRLSCAVSGFSSTNYHVHWVRQAPGKGLEWMGVIWGDGDTSYNSVLKSRFTISRDTSKNTVYLQMNSLRAEDTAVYYCARQLTHYYVLAAWGQGTLVTVSS chain 2: DIQMTQSPSSLSASVGDRVTITCRASEDLYYNLAWYQRKPGKAPKLLIYDTYRLADGVPSRFSGSGSGTDYTLTISSLQPEDFASYYCQQYYKFPFTFGQGTKVEIK | 8.9%

— the FLAb antibody collection
